The results in this text go back to article PMC4005822, “Biochemical and functional characterization of Plasmodium falciparum GTP cyclohydrolase I” (Malaria Journal, 2014).

For series [1], the system named is Nc1nc2c(ncn2[C@@H]2O[C@H](COP(=O)(O)OP(=O)(O)OP(=O)(O)O)[C@@H](O)[C@H]2O)c(=O)[nH]1. Description: fluorescence of iodine-oxidised neopterin product. Format: biochemical, Plasmodium falciparum. The following applies: 50 mM Tris–HCl pH 7.8, 100 mM KCl, 20% glycerol, 37°C.
In series [2] the target is T1, Plasmodium falciparum Δ1-195 GCH1 (core GCH1) (Plasmodium falciparum, UniProt Q8I5H7).
T1 construct: gene PF3D7_1224000; C-terminal core domain, residues 196-389 (N-terminal 1-195 deleted); pET45b(+), E. coli BL21(DE3)RIL, Ni-sepharose purified (His tag); homodecamer
T1 sequence (Q8I5H7 entry or part of it, stated change not applied): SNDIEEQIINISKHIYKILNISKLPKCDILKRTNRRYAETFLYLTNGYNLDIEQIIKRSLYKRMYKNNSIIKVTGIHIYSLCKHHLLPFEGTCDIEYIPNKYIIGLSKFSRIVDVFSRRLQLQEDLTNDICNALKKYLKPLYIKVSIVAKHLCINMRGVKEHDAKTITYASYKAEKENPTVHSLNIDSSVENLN
Kind of series: fluorescence of iodine-oxidised neopterin product; initial velocity at various GTP concentrations. In kind it is biochemical. To be noted: GTP as substrate; called competitive by the authors.

As to “Plasmodium falciparum Δ1-195 GCH1 (core GCH1) (Plasmodium falciparum 3D7)”, in series [1], the Km came out at 12.06 µM and the kcat is 0.039 s⁻¹.

In the case of `Nc1nc2c([nH]c(=O)n2[C@@H]2O[C@H](COP(=O)(O)OP(=O)(O)OP(=O)(O)O)[C@@H](O)[C@H]2O)c(=O)[nH]1` [8-oxo-GTP], the “fluorescence of iodine-oxidised neopterin product; initial velocity at various G” value in series [2] is 8-oxo-GTP could inhibit the activity of P. falciparum GCH1 with reduced fluorescent signal.

By Km is commonly meant the concentration of substrate that gives half-maximal velocity. The term kcat denotes the number of substrate molecules converted per active site and unit of time at saturation.
